Assay: soluble on expression in E. coli; label from the status in PepcDB or PDB records
For “MSLNSLDTSASTINGASIIQVIFEIFEISLQRKDYTSIVQCCEFMTMLTPNYLHLVSSYLNKSDLLDKYGKTGLSNMILGSVELSTGDYTFTIQLLKLTKVFIRESLSLKNIHISKRSKIDIINKLILHAIHIFESYYNWKYNNFLQKFEIAFHLTLIFYDVLHDVFTINPHQKDQLIISSSANKLLQLFLTPMDSIDLAPNTLTNILISPLNTTTKILGDKILGNLYSKVMNNSFKLCTLLISIRGSNRDLKPSNLEKLLFINSSKLVDVYTLPSYVHFKVQIIELLSYLVEAPWNDDYPFLLSFLGEAKSMAFLKEVLSDLSSPVQDWNLLRSLYIFFTTLLESKQDGLSILFLTGQFASNKKINDESSIDKKSSILTVLQKNSLLLDSTPEEVSCKLLETITYVLNTWTNSKIFIKDPKFVNSLLAKLKDSKKLFQKKENLTRDETVSLIKKYKLISRIVEIFALCIYNSTDSNSEILNFLNQEDLFELVHHFFQIDGFNKTFHDELNLKFKEKWPSLELQSFQKIPLSRINENENFGYDIPLLDIVLKADRSWNEPSKSQTNFKEEITDASLNLQYVNYEISTAKAWGALITTFVKRSTVPLNDGFVDLVEHFLKLNIDFGSDKQMFTQIYLERIELSFYILYSFKLSGKLLKEEKIIELMNKIFTIFKSGEIDFIKNIGKSLKNNFYRPLLRSVLVLLELVSSGDRFIELISDQLLEFFELVFSKGVYLILSEILCQINKCSTRGLSTDHTTQIVNLEDNTQDLLLLLSLFKKITNLNPSKNFNVILASSLNEVGTLKVILNLYSSAHLIRINDEPILGQITLTFISELCSIEPIAAKLINSGLYSVLLESPLSVAIQQGDIKPEFSPRLHNIWSNGLLSIVLLLLSQFGIKVLPETCLFVSYFGKQIKSTIYNWGDNKLAVSSSLIKETNQLVLLQKMLNLLNYQELFIQPKNSDDQQEAVELVIGEGHHHHHH”, the “soluble on expression in E. coli” value was “not soluble”.
With “MLYKIYSYLGWRIDMKTENLPQAGQEAQIDKKIHFIWVGHIMPQKNIQVVSEWAEKNPGYETIIWVDKKIAPAKELDLFILDMKSKGITVKDINEEGVCRDSIRHELDQESPNYGMVSDMLRLNILAAEGGIYLDSDILCSAPFPDEIYAPFGFLLSPWSQGANNTLCNDIILCSKGNQIIQQLADAIEQSYIARDSFEFTHEYASMKETKGERIAKTLGVTGPGFLFHQLKKMGILNDKSEMEAIHWELQDQRYLIDGSVKEPDYFYVPQNNTNDASWVPSIKRPGIENMSFQERLENAVQLIAFDIQKTGLFNLDHYANELKVKQNSWCIAAETSPELKPDSYLLIRPRDKTGEWTLYYVDEDKKLNPVTLPVIKGAIKLSEVSDPLRKFHTLLSQVSDPVNPTAHELKQIGRALIELKPRQDEWHCKNKWSGAEEIAQELWQRITSNETLRAQIKQCFTQFESLKPRVAELGLTRASGAGTEVEAHESTVKEQEIISQNTVGEEGTKEKNSVQLASENSSDEKIKTAHDLIDEIIQDVIQLDGKLGLLGGNTRQLEDGRVINIPNGAAMIFDDYKKYKQGELTAESALESMIKIAKLSNQLNRHTFFNQRQPETGQFYKKVAAIDLQTTIAAEYDNNHGLRILEHHHHHH” the “soluble on expression in E. coli” value was “not soluble”.
In the case of “MASLSYPKTTMQIQLGANLKPYHTFGIEQLAAQLVVAESIDDLKALYCSAEWASLPKLIIGKGSNMLFTCHYTGMIVVNRLNGIEHQQDDDYHRLHVAGGEDWPSLVSWCVEQGIGGLENLALIPGCAGSAPIQNIGAYGVEFKDVCDYVEYLCLETGTVKRLTMEECQFGYRDSIFKHQLYQKAVVTAVGLKFAKAWQPIIQYGPLKDLSSDCAIHDVYQRVCATRMEKLPDPAVMGNAGSFFKNPVISQQAFARLQIEHPDVVAYPAEQGVKVAAGWLIDQAGLKGHQIGGAKVHPKQALVIVNTGDASAQDVLMLAADIQQRVFNCYGIELEHEVRFIGESEETNLKQWMSEQA”, the “soluble on expression in E. coli” value is reported as “soluble”.
In the case of “MAHHHHHHMSQTATAGPALPPPEEPLTYPITFTKQAEESPQSEPGVAAPAAPSGLHQISIFSALHFLLPVYELAGWLPKTTVQHSRKSGDKSSPVSATAGGSKSTSGTAADVSIDLDAIPHDDVRAALRLLPVFEKFFVEGSKIVAQHTDLYYFIESFTLPTPKGPKVITRSKVEGDYRAVHQPSHAPASLGAAGAMTKTTVTNSTAYFSLLPGHNQFLLYYEDCEKLRHFTYLQLDQLRFAWVAVKELLEESKVFNLSDGSLTGLAKRDLQKNNTASPFCLASSAQAATATERASSHDNGSNGGAVIGRGGGNARLHQGTSGNVITAPSKETTEEKKRIQQMSFLREELEHECQRRWPYTPVSKSCIFSLEEKVEAELPADALEQLGIVGAHNTRNSKNGNRRGPRYYLATVDLPLLNKKGGAARFKAPRWWNNRRDAESAAAEATLLALRSMKS”, the “soluble on expression in E. coli” value is reported as “not soluble”.
With “MPLFAGFSPRSGQGDLAEFVDIINGARRDLLFVTAFALPDSILDALLGQPHDDVLRYGLQNTASRITGFHADRTAEFAATALLNNGLEGWLKEGLKGQKGNLLVHTKAIVTDFTSEAPVIISGSHNLSVGASQSNDENFLIIRGDIDLEHHHHHH” the “soluble on expression in E. coli” value was “soluble”.
For “MGSDKIHHHHHHYTEQPIDLVPTQPLPNASFDNFKLTCSNTKFADDLNQMTGFTKPASRELSVTFFPDLNGDVVAIDYRHYSASFKKGAKLLHKPIVWHINQATTKTTFKPNTWCLRCLWSTKPVDT”, the “soluble on expression in E. coli” value was “soluble”.
In the case of “MNELRDPGDAVIAIVGGGASGVLVALQLLRQAVAPVQIVVIEPHAVLGEGVAYSTARPEHLLNVPAARMSALVEAPQDFVDYLRAHACCPELEDARLPQAFVGRRHYAPYLRDRLQTARVQSPATLIVHSARVQTLHADADGALLQLDDGQTLHATSVVLAVGNALRPLPLRGATGLSATQRLEAWDTEAVAALPQDAAVCIVGSGLSMADTVVTLAAQAHRGAVHVVSRHGLLPLPQAHCVAADFDPQPLLALSLRARMRSLRQHAQVAMAQGLPWQGVMERVRPLNQVLWQTLSVADQRRFLRHVVRYWDVHRHRIAAPVHAQLQAMRARGQLQLHRARLDVAFQAGACVRLSAGASAGHALQLDVQTLVNATGVEMRVQAMRNPLLQQLLGQGIAVAGSHGIGVDTAADGCLIDAEGHANPRLRVIGSLRIGSLWESLAVPELREQAAAIARDVLALLGR”, the “soluble on expression in E. coli” value is reported as “not soluble”.
With “MSLKVPGIRNYDGPAGGWGALKATATAVREQMDTLKAPLTLMRTNQPDGFDCPGCAWPDKEHKSTFQFCENGAKAVTWEATNKRVTPAFFAQHPVTSLLQRSDYELEDLGRLTEPLVYDRASDTFKPVAWQDAFARIGEILRSLQPEQVEFYTSGRASNEAAYLYQLFAREYGCNNFPDCSNMCHEPTSVGLPRSIGIGKGTVSLEDFDLCELIISIGHNPGTNHPRMMGTLHEASRRKVPIMVFNPLRERALERFADPQNMVEMATYGSTRIASSYFQVKAGGDAAAIKGIMKALLALEDSLGQVLDQAFIAEHTQGFEALAADLHATAWADIEQASGLHQADLEMVAAAYAKSNATIVTYGMGITQHNEGTANVRLICDLLMLRGNLGKPGAGICPLRGHSNVQGNRTVGITEKPSPAFLDKLQQTFGFTPPAHHGHDAVQAMQAMIAGSAKALLCLGGNFAVALPDPGQCFPAMGKLDLSVHIATKLNRSHLLVARETFLFPCLGRTELDMQDGLRQAITVEDSMSMVHASAGKLAPASEFLLSEPAIVAGMARATLPGSRVPWLELVADYDKIRDLIEQTVPGFDDYNARIRVPGGFRMPLAAAERQWLTPSGKAEFFVFPGLHEDKEVDGADVLRLITLRSHDQYNTTIYALDDRYRGVFGRRDVLFISPADLAARGLAHGDLVDIETVIGGRRLRYEKITAIEYKIANGTVGAYYPEANRLVPLDYLDVDSGTPSYKSVPVRVLRSSPAEGHHHHHH” the “soluble on expression in E. coli” value was “soluble”.
In the case of “MAHHHHHHMKKHKVPCKKFYRQRAHCNPLSDSYIRYPINCSYVDWRVHYPHLAAHGSDAQAEPINSVEATKHITNTEVERPPDEDPPTLQLNTNKYPIDYNQGPPKCAPHAEVTILDIGCGYGGLLFELSKTFPNKLILGMEIRDKITNYVGEKIHSYRKNYPPQYKNISVVRTNAMKFLPNYIKKNQIEKLFFCFPDPHFKKQNWRRRTITIESLSLYYYLLKRDGLIYFITDVYTLFLWVRFCFSKYPGFRLLSPEECQGDICVRLIHHSSEESKRVSKNKQAMYFCVARKE”, the “soluble on expression in E. coli” value is reported as “not soluble”.
In the case of “MKSRREQSIEEAIVANYLKMMIDNVNVWPRHFLRSEDVYCKNPWTLFVTRDPIILHFGRYFFVNRSVNSGLTDGCEYGCWRIIGRDRVIKSVTTGKILGLKKVYKFCETDRKPKSVFKFLEKEKRRVRDRRIWAMEEYRFASTWKQDYVICKIRRLYPQPFDYMLAQHIRGYYK”, the “soluble on expression in E. coli” value is reported as “soluble”.
For “MNQKIYWDELKEGEQFSYGHYQVSEHENIDFAKRYDPMEFHVDPEKAKLSPIGALCASGIHTLGIMQRLTFDNIYTNWHIVAGRELRKCQFRLPVFVDDCLTVNMTIAKLSVDTRSDRGNAELTFDVKNAKGKTVLEVEGEIVLQRFPSILEHHHHHH”, the “soluble on expression in E. coli” value was “not soluble”.
In the case of “MIDFNVDSARCTRCGQCVADCPSRIIVMATGEYPSIAPGKEFSCLRCEHCLAVCPEAAISILGFSPDGSTPLKGNLPETDQLETLIAGRRSVRRYCPENLSPELIDKLITVASCAPTGVNARKVRFTVLDDREKTAHFRDEVMERLVRLLEEEALPESKAYYARFVKVWQKHKIDLVFRDAPHLLIATAPKSLSTPRQDCVIALTTFELYAQACGIGTLWNGIATWAIEEMLPEMRQRLGIPDDHAFGYAMLFGKPAVRYARTVQHHPPEIYRVPLEHHHHHH”, the “soluble on expression in E. coli” value is reported as “not soluble”.
For “MAHHHHHHMRGTPLREGHHSPTQSVRRFFSDYQHVQEEKVNLPRLKLRGLPFDASEEEIKTFFKNFQLAKVGYPIHIIRGVKNKPTGQAHVYFDDEEEARKACETLNRKFLRNRYIEIYTDYIFNHNLTLVKEHVTTLMRDRYRKDNQ”, the “soluble on expression in E. coli” value was “not soluble”.
With “MDFNLNDEQELFVAGIRELMASENWEAYFAECDRDSVYPERFVKALADMGIDSLLIPEEHGGLDAGFVTLAAVWMELGRLGAPTYVLYQLPGGFNTFLREGTQEQIDKIMAFRGTGKQMWNSAITEPGAGSDVGSLKTTYTRRNGKIYLNGSKCFITSSAYTPYIVVMARDGASPDKPVYTEWFVDMSKPGIKVTKLEKLGLRMDSCCEITFDDVELDEKDMFGREGNGFNRVKEEFDHERFLVALTNYGTAMCAFEDAARYANQRVQFGEAIGRFQLIQEKFAHMAIKLNSMKNMLYEAAWKADNGTITSGDAAMCKYFCANAAFEVVDSAMQVLGGVGIAGNHRISRFWRDLRVDRVSGGSDEMQILTLGRAVLKQYR” the “soluble on expression in E. coli” value was “soluble”.
In the case of “MGSDKIHHHHHHMKIFLDTANLEEIKKGVEWGIVDGVTTNPTLISKEGAEFKQRVKEICDLVKGPVSAEVVSLDYEGMVREARELAQISEYVVIKIPMTPDGIKAVKTLSAEGIKTNVTLVFSPAQAILAAKAGATYVSPFVGRMDDLSNDGMRMLGEIVEIYNNYGFETEIIAASIRHPMHVVEAALMGVDIVTMPFAVLEKLFKHPMTDLGIERFMEDWKKYLENLKK”, the “soluble on expression in E. coli” value is reported as “soluble”.
For “MRKMKKMDADTLTAILAFQRLSGTGKSLLEGAAKDAEAGRYSIIAINPVHEIKVYQHDYYIDGTHQVVADPLKEIELFIEKAREDELELPLDSGAIGYVGYDVIALYEDLGEIPVETRDIPDIRFYVYESFVIMDHQAEELILVQDNCYSGRSEADLDKALESMLTELTTPKKDEHKAVHVPKMSYKSNYTKDEYMGLVKKAKTYIQEGDFFQIVLSQRLEADFTVKPFDYYRKLRLLNPSPYLYFIDFGDTVLIGSSPESLIKTKGRTVITNPIAGTRRRGATKQEDELLASELLSDEKELAEHRMLVDLGRNDIGKIAETGSVHVPVYLTIERYRFLMHLVSVVEGTLKTGLTAIDALRSTLPAGTVSGAPKIRAMERIYEWENVKRGPYAGAVGYLTKNGDSDFALSIRTMVLHNGKAYVQAGAGIVYDSDPESEYLETLQKAKALLEVGE”, the “soluble on expression in E. coli” value was “not soluble”.

Reference: the DeepSol protein solubility set
